According to publication PMC4335062, “Data-Driven Prediction and Design of bZIP Coiled-Coil Interactions” (PLoS Computational Biology, 2015):
Where no end group is shown, it is not given here.

What was measured:
[1] = target: T1, XBP1 (Homo sapiens, UniProt P17861); settings: native human bZIP binding XBP1; cited from earlier work
T1 construct: made in house
T1 sequence (P17861 70-133 limits assumed): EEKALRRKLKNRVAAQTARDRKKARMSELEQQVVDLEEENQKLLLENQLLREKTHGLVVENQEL
From the text: We chose five human bZIP proteins as targets: X-box binding protein 1 (XBP1), JUN, Activating Transcription Factor (ATF) 3, ATF4 and ATF5. These are proteins for which an interaction partner was designed in prior work, but either the affinity or the specificity of the design left room for improvement. […] For example, XBP1-d1 was composed of heptads from N. vectensis, C. elegans and C. intestinalis proteins, and from previously designed bZIP binders. We also note that our four designs were composed of 24 distinct, non-recurring heptads. Thus, our design al ... || We compared the new designs to designed peptides targeting XBP1 and JUN reported by Grigoryan et al. for which FRET measurements were available. […] It should be noted that XBP1 presents a challenging target because three of its core a positions are occupied by asparagines. A matching asparagi ...

[2] = target: partner bZIP coiled coil (Protein2); settings: Protein2 = CI12 (CI), inter; 5000 assigned if Kd >5,000 nM or no binding; cited from earlier work
Procedure: Supplement pcbi.1004046.s020.csv, table | column: Kd || Fig 4 Designed bZIP-binding peptides inhibit interactions of native bZIP dimers. […] The dissociation constants at the indicated temperatures are Kd ≤ 1 nM for FOS-JUN, Kd ≤1 nM for XBP1-CREBZF, and Kd = 60 nM for ATF4-FOS, according to [18]. Fluorescence intensities were measured at both 37°C and 23°C, a ...

[3] = target: T2, Activating Transcription Factor 4 (ATF4) bZIP construct, C-terminally fluoresceinated (human, UniProt P18848 278-351, fluorescein at the C-terminus); experiment: FRET or BRET; direct-binding FRET at 37°C; 10 nM fluorescein-labelled bZIP (donor), rhodamine-labelled design (acceptor) titrated 0 to 1 μM; 150 mM KCl, 50 mM potassium phosphate pH 7.4, 0.1% Tween-20, 0.1% BSA; settings: both partners purified
T2 construct: source: previously described, donated by A.W. Reinke [18]
T2 sequence (looked up): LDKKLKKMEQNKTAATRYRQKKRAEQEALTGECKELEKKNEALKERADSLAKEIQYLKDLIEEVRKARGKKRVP

[4] = target: the molecule itself; experiment: FRET or BRET; homodimer Kd of the designed peptide determined by FRET, 23°C; dimer to monomers
[5] = target: T3, JUN bZIP construct, C-terminally fluoresceinated (human, UniProt P05412 252-315, fluorescein at the C-terminus); experiment: FRET or BRET; direct-binding FRET at 37°C; 10 nM fluorescein-labelled bZIP (donor), rhodamine-labelled design (acceptor) titrated 0 to 1 μM; 150 mM KCl, 50 mM potassium phosphate pH 7.4, 0.1% Tween-20, 0.1% BSA; settings: both partners purified
T3 construct: source: previously described, donated by A.W. Reinke [18]

[6] = target: JUN (Homo sapiens, UniProt P05412); design: made in house; settings: native human bZIP binding JUN; cited from earlier work
From the text: For most bZIP pairs, binding of the N-terminally labeled designed peptide to a C-terminally labeled target gave very little signal, and such curves could rarely be fit to provide Kd values (S9–S12 Tables). In a few cases where interactions could be quantified with both N- and C-terminal dye labeling, we observed that the affinity of N-terminally labeled designs for C-terminally labeled targets was somewhat weaker than the affinity of C-terminally labeled designs (S5–S12 Tables). Enhanced affinities attributable to dye interactions have been reported previously. […] For example, XBP1-d1 was composed of heptads from N. vectensis, C. elegans and C. intestinalis proteins, and from previously designed bZIP binders. We also note that our four designs were composed of 24 distinct, non-recurring heptads. Thus, our design al ... || We compared the new designs to designed peptides targeting XBP1 and JUN reported by Grigoryan et al. for which FRET measurements were available. […] It should be noted that XBP1 presents a challenging target because three of its core a positions are occupied by asparagines. A matching asparagi ...

[7] = target: T4, ATF4 (Homo sapiens, UniProt P18848); settings: native human bZIP binding ATF4; cited from earlier work
T4 construct: made in house
T4 sequence (P18848 278-341 limits assumed): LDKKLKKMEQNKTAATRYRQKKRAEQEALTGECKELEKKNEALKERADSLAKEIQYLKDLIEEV
From the text: For example, XBP1-d1 was composed of heptads from N. vectensis, C. elegans and C. intestinalis proteins, and from previously designed bZIP binders. We also note that our four designs were composed of 24 distinct, non-recurring heptads. Thus, our design al ...

T3 sequence (P05412 252-315): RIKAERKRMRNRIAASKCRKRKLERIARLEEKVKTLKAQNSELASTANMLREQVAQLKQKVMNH
Sequence of JUN (P05412 252-315 limits assumed): as the sequence (P05412 252-315) above

In the case of ATF6: native human bZIP coiled coil, the Kd [1] is listed as 1 nM and the Kd [2] is listed as 5000 nM.

B1: ATF4-d1, rhodamine-labelled at the C-terminus (designed binder)
chain: GESKEYKKGSGSNQIKTLRTRLSKLRKDNLQLEKDIANLERKAKDLRAEKEQLEYELGC(Rhodamine Red C2‑maleimide)
notes: solubility linker after the His tag; added at the C-terminus for labelling; also used for the homodimer row; source: E. coli RP3098, purified (Ni-NTA under denaturing conditions, reverse-phase HPLC)
Molecule B1 has a Kd [3] of 9.3 ± 2.3 nM and a Kd [4] of 36.3 nM.

B2: JUN-d1, rhodamine-labelled at the C-terminus (designed binder)
chain: GESKEYKKGSGSSIAATLEKEEANLEKMNKKLAAEIESLLKEKDKLESVLNYHEGC(Rhodamine Red C2‑maleimide)
notes: solubility linker after the His tag; added at the C-terminus for labelling; source: E. coli RP3098, purified (Ni-NTA under denaturing conditions, reverse-phase HPLC)
Molecule B2 has a Kd [5] of 5.8 ± 0.7 nM.

B3: FOS: native human bZIP coiled coil (protein)
chain: EEKRRIRRERNKMAAAKCRNRRRELTDTLQAETDQLEDEKSALQTEIANLLKEKEKLEFILAAH
modifications: C-terminal TAMRA when used as FRET acceptor
In the case of B3, the Kd [6] is listed as 1 nM.

B4: ATF6B: native human bZIP coiled coil (protein)
chain: MAELMLLSEIADPTRFFTDNLLSPEDWGLQNSTLYSGLDEVAEEQTQLFRCPEQDVPFDGSSLDVGMDVSPSEPPWELLPIFPDLQVKSEPSSPCSSSSLSSESSRLSTEPSSEALGVGEVLHVKTESLAPPLCLLGDDPTSSFETVQINVIPTSDDSSDVQTKIEPVSPCSSVNSEASLLSADSSSQAFIGEEVLEVKTESLSPSGCLLWDVPAPSLGAVQISMGPSLDGSSGKALPTRKPPLQPKPVVLTTVPMPSRAVPPSTTVLLQSLVQPPPVSPVVLIQGAIRVQPEGPAPSLPRPERKSIVPAPMPGNSCPPEVDAKLLKRQQRMIKNRESACQSRRKKKEYLQGLEARLQAVLADNQQLRRENAALRRRLEALLAENSELKLGSGNRKVVCIMVFLLFIAFNFGPVSISEPPSAPISPRMNKGEPQPRRHLLGFSEQEPVQGVEPLQGSSQGPKEPQPSPTDQPSFSNLTAFPGGAKELLLRDLDQLFLSSDCRHFNRTESLRLADELSGWVQRHQRGRRKIPQRAQERQKSQPRKKSPPVKAVPIQPPGPPERDSVGQLQLYRHPDRSQPAFLDAIDRREDTFYVVSFRRDHLLLPAISHNKTSRPKMSLVMPAMAPNETLSGRGAPGDYEEMMQIECEVMDTRVIHIKTSTVPPSLRKQPSPTPGNATGGPLPVSAASQAHQASHQPLYLNHP
modifications: fluorescein at the C-terminus (FRET donor) or TAMRA (FRET acceptor), by assay
notes: native human bZIP coiled coil
In the case of B4, the Kd [7] is given as at least 5000 nM.
